Measured values: patent US20220204643A1 (published 2022)
Values belong to the binder of their own block, whether it stands above or below them.

Experiments:
[1] = target: T1, dynein axonemal assembly factor 3, transcript variant 3 (human, UniProt Q8N9W5 1-541); experiment: protein array
T1 construct: on protein array; also called DNAAF3
T1 sequence: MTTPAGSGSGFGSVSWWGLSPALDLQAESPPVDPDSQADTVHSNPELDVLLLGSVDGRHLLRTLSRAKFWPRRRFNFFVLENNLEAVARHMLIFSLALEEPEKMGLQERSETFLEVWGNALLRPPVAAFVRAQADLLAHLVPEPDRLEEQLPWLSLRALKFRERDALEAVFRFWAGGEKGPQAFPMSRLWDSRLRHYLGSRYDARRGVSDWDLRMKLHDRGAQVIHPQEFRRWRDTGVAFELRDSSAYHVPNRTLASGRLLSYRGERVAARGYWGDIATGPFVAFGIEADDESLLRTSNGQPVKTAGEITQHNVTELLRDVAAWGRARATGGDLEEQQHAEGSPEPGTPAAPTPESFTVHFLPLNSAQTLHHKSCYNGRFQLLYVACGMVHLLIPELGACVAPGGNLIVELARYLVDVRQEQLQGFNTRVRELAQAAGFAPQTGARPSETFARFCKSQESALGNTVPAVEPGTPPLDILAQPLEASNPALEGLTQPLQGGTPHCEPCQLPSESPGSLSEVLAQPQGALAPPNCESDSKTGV

[2] = target: T2, CDP-diacylglycerol synthase 1 (human, UniProt Q92903 1-461); experiment: protein array
T2 construct: on protein array; also called CDS1
T2 sequence: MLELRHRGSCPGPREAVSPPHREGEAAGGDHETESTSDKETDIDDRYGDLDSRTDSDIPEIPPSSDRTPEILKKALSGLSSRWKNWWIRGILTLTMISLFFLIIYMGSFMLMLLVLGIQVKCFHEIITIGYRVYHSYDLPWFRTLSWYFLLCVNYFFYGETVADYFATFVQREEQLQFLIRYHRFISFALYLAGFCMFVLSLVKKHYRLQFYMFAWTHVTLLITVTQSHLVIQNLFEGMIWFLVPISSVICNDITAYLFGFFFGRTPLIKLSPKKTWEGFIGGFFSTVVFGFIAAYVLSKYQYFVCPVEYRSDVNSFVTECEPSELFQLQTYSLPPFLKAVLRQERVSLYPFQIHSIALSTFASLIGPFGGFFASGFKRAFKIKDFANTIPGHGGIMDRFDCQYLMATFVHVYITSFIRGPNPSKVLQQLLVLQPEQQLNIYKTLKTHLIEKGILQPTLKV

[3] = target: T3, RAD1 checkpoint DNA exonuclease, transcript variant 1 (human, UniProt O60671 1-282); experiment: protein array
T3 construct: on protein array
T3 sequence: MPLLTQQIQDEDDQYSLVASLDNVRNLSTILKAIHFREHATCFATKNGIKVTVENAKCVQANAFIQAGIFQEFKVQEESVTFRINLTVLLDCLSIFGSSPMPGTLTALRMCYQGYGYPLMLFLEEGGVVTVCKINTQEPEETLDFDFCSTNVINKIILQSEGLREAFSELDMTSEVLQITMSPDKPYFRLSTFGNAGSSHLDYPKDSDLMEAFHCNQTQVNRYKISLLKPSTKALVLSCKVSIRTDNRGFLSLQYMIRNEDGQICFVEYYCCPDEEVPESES

[4] = target: T4, Microtubule associated scaffold protein 1 (human, UniProt Q9ULD2 875-1270); experiment: protein array
T4 construct: on protein array; also called MTUS1
T4 sequence: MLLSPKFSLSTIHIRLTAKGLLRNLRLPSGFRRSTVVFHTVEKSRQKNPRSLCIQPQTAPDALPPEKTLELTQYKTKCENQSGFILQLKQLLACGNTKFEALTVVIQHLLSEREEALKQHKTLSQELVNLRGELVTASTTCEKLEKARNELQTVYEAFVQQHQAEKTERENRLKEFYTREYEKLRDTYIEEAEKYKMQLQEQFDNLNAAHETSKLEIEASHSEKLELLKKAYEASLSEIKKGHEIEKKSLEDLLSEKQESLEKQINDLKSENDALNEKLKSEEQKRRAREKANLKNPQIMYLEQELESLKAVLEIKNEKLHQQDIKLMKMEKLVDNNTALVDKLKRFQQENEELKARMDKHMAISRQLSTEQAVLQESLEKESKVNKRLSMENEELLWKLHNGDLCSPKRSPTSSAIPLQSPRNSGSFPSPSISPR

[5] = target: T5, RNA binding motif protein 47, transcript variant X10 (human, UniProt A0AV96 1-593); experiment: protein array
T5 construct: on protein array; also called RBM47
T5 sequence: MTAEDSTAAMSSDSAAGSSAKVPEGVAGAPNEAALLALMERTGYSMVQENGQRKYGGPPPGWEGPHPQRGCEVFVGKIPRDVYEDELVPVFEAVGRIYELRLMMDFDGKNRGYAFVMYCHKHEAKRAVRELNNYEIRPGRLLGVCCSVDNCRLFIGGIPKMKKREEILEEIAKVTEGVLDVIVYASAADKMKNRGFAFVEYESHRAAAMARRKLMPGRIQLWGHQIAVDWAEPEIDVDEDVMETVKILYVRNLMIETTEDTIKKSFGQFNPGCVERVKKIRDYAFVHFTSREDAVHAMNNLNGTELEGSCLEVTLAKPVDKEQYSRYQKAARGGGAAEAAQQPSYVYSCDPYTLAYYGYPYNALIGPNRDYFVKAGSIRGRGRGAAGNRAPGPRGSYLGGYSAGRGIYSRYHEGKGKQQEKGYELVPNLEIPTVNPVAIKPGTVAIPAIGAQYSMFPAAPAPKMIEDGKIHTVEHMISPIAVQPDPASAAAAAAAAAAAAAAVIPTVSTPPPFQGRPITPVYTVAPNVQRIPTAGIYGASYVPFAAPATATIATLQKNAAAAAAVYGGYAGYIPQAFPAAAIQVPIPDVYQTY

[6] = target: T6, S100 calcium binding protein B (human, UniProt P04271 2-92); experiment: protein array, with experimental replicate
T6 construct: on protein array; also called S100B
T6 sequence: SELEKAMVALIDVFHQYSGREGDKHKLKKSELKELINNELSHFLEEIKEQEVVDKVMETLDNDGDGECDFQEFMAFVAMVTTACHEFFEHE

[7] = target: aldo-keto reductase family 1 member B, transcript variant 1 (human, UniProt P15121 2-316); experiment: protein array
[8] = target: T7, NCCRP1, F-box associated domain containing (human, UniProt Q6ZVX7 1-275); experiment: protein array
T7 construct: on protein array
T7 sequence: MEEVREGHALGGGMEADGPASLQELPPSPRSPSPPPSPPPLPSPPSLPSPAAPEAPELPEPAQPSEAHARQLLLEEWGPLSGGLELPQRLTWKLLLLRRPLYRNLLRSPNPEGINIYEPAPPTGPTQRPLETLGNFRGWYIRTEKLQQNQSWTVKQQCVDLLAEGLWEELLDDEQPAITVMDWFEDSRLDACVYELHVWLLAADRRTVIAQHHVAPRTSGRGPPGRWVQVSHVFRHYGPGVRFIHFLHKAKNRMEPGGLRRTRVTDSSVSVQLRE

[9] = target: T8, coiled-coil domain containing 102A, transcript variant X1 (human, UniProt Q96A19 1-550); experiment: protein array
T8 construct: on protein array; also called CCDC102A
T8 sequence (Q96A19 other isoform, or with tags, fused parts or gaps mutant limits assumed): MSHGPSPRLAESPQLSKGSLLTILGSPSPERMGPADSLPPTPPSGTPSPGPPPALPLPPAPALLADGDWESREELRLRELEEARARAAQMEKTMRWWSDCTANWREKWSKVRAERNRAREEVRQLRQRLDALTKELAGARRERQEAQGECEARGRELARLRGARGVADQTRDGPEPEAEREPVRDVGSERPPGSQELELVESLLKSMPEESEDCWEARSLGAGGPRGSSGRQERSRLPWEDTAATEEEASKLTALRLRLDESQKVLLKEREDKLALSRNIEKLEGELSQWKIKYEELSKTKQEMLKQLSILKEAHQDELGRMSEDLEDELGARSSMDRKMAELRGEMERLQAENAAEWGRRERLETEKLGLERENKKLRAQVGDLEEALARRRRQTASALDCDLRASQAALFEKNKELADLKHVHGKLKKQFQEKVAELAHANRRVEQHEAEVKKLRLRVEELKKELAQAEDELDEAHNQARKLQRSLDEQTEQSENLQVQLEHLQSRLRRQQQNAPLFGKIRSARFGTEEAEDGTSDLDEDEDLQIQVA

binding result [7]: binds
B5: TKIC1006 (antibody, V domains shown)
VH: QVQLVQSGAEVKKPGSSVKVSCKTSGGTFSSYTISWVRQAPGQGPEWMGRIIPILNITNYAQKFQGRVTITADKSTSTTYMEMGSLRSEDTAVYFCARSFYGSGLQWGQGTLVTVSS
VL: EIVLTQSPGTLSLSPGERATLSCRASQSVSSSYLVWYQQKAGQAPRLLIYGASSRATGISDRFSGSGSGTDFTLTISRLEPEDFAVYYCQHFRSSPPTYTFGQGTKLEIKR
notes: VH/VL tied via antigen in summary, not by name in this stretch

binding result [8]: binds
binding result [9]: binds
B6: THNS1003 (antibody, V domains shown)
VH: VVQLVESGGGLVQPGGSLRLSCAASGFTFNNYEMNWVRQAPGKGLEWVSYISSSGSTIYYADSVKGRFTISRDNAKNSLYLQMNSLRAEDTAVYYCARQMVTTRGYWGQGTLVTVSS
VL: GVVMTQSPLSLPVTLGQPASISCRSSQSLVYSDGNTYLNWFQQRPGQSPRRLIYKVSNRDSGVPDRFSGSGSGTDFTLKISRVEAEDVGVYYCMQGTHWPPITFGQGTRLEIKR
notes: VH/VL only

Continued, binder first:

B1: THNS1014 (antibody, V domains shown)
VH: HVQLLQSGPGLVKPSQTLSLTCAISGDSVSSTSGAWNWIRQSPSRGLEWLGRTYYRSQWMNDYAESVRSRITINPDTSKNQFSLQLKSVTPEDTAVYYCTRGWAFTSSDWGQGTQVTVSS
VL: EIVLTQSPGTLSLSPGERATLSCRASQSFDGKSLAWYQQKPGQTPRLLVYGASSRATGIPDRFGGSGSGTDFTLTISRLESEDFAVYFCQQYAYVPITFGQGTRLERKR
notes: VH/VL only
binding result [1]: binds
binding result [2]: binds

B2: THNS1006 (antibody, V domains shown)
VH: QVQLVESGGGVVQPGRSLRLSCAASGFTFSSYGMHWVRQAPGKGLEWVAIISYDGSNKYYADSVKGRFTISRDKSKNTLYLQMNSLRAEDTAVYYCAKSKGNYRDAMDVWGQGTTVTVSS
VL: SYVLTQPPSVSVAPGQTARITCGGNNIGSKSVHWYQQKPGQAPVLVVYDDSDRPSGIPERFSGSNSGNTATLTISRVEAGDEADYYCQVWDSSSDPWVFGGGTKLTVLG
notes: VH/VL only
binding result [3]: binds
binding result [4]: binds

B3: THNS1004 (antibody, V domains shown)
VH: EVQLVESGGGLVQPGGSLRLSCAASGFTFSSNWMSWVRQAPGKGLEWVANIKEDGSEKYYVDSVKGRFTIFRDNAKNSLYLQMNSLRAEDTAVYYCARVPSRYGRSRGAFDIWGQGTMVTVSS
VL: DIQMTQSPSSLSASVGDRVTITCRASQSISSYLNWYQQKPGKAPKLLIYAASSLQSGVPSRFSGSGSGTDFTLAISSLQPEDFATYYCHQTYSTRLTFGGGTEVEIKR
notes: VH/VL only
binding result [5]: binds

B4: TKIC10012 (antibody, V domains shown)
VH: VVQLVESGGGLVQPGGSLRLSCAASGFSFSTYWMSWVRQAPGKGLEWVANIKQDGSEKHYVDSVKGRFTISRDNAKNSLYLQMNSLRAEDTAMYYCARRAYSFDYWGQGTLVTVSS
VL: DIQMTQSPSTLSASVGDKVTITCRASQSVGSWLAWYQQKPGKAPKLLISVASSLESGVPSRFSGSGSGTEFTLTVSSLQPDDFATYYCQQYNSYSWTFGQGTKVELKR
notes: as for B5
binding result [6]: binds
